One may read the EC50 as the concentration needed to bring the measured effect to its halfway point. In general, IC50 refers to the midpoint of a concentration-inhibition curve.

Starred links: 1 amine or outer side, 2 acyl side, 3 side chain; linkers in the order of their positions; H or OH if unused. Positions of bridges follow the written chain, without caps; N, C: chain ends. Non-standard residues stand in square brackets, D forms with d. Primed or numbered codes have the meaning given here. PyrS2″ = (S)-3-amino-1-((pent-4-en-1-yloxy)carbonyl)pyrrolidine-3-carboxylic acid (stapling residue), C=CCCCOC(=O)N1CC[C@@](N[*:1])(C(=O)[*:2])C1; B5(4) = 2,2-bis(4-pentenyl)glycine = 2-amino-2-(pent-4-en-1-yl)hept-6-enoic acid (stitching residue), C=CCCCC(CCCC=C)(N[*:1])C(=O)[*:2]; B5(5) = 2,2-bis(4-pentenyl)glycine, 2-amino-2-(pent-4-en-1-yl)hept-6-enoic acid (stitching residue), C=CCCCC(CCCC=C)(N[*:1])C(=O)[*:2]; B5(8) = 2,2-bis(4-pentenyl)glycine (2-amino-2-(pent-4-en-1-yl)hept-6-enoic acid, stitching residue), C=CCCCC(CCCC=C)(N[*:1])C(=O)[*:2]; TfeGA = (S)-2-amino-3-((carboxymethyl)(2,2,2-trifluoroethyl)amino)propanoic acid, O=C([C@H](CN(CC(=O)[*:3])CC(F)(F)F)N[*:1])[*:2]; PyrS2 = (S)-3-amino-1-((pent-4-en-1-yloxy)carbonyl)pyrrolidine-3-carboxylic acid, C=CCCCOC(=O)N1CC[C@@](N[*:1])(C(=O)[*:2])C1; B5(13) = 2-amino-2-(pent-4-en-1-yl)hept-6-enoic acid (two alkene chains), C=CCCCC(CCCC=C)(N[*:1])C(=O)[*:2]; B5(3) = 2,2-bis(4-pentenyl)glycine (stitching residue), C=CCCCC(CCCC=C)(N[*:1])C(=O)[*:2]; Trp(5-Cl) = N[C@@H](Cc1c[nH]c2ccc(Cl)cc12)C(=O)O; 2Nal = N[C@@H](Cc1ccc2ccccc2c1)C(=O)O; Phe(2-Me) = Cc1ccccc1C[C@H](N)C(=O)O; Bta = N[C@@H](Cc1csc2ccccc12)C(=O)O; αAllylPro = C=CC[C@@]1(C(=O)O)CCCN1; tBuAla = CC(C)(C)C[C@H](N)C(=O)O; 3Thi = N[C@@H](Cc1ccsc1)C(=O)O; Cit = NC(=O)NCCC[C@H](N)C(=O)O; S8 = C=CCCCCCC[C@](C)(N)C(=O)O; hLeu = CC(C)CC[C@H](N)C(=O)O; hSer = N[C@@H](CCO)C(=O)O

Sequences and labels used below:
B1: I-805 (peptide)
peptide: Ac-[αAllylPro]D[tBuAla][B5(4)]DDAAF[Cit][PyrS2″][3Thi][Bta]Q-NH2
modifications: staple 1-4, 4-11
B2: I-791 (peptide)
peptide: Ac-[αAllylPro]D[tBuAla][B5(4)]DDAAFN[PyrS2][3Thi][Trp(5-Cl)]H-NH2
modifications: staple 1-4, 4-11
B3: I-790 (peptide)
peptide: Ac-[αAllylPro]D[tBuAla][B5(5)]DDAAFN[PyrS2][3Thi][2Nal]H-NH2
modifications: staple 1-4, 4-11
B4: I-804 (peptide)
peptide: Ac-[αAllylPro]D[tBuAla][B5(4)]DDAAF[hSer][PyrS2″][3Thi][Bta]H-NH2
modifications: staple 1-4, 4-11
B5: I-792 (peptide)
peptide: Ac-[αAllylPro]D[tBuAla][B5(4)]DDAAFN[PyrS2][3Thi]WH-NH2
modifications: staple 1-4, 4-11
B6: I-788 (peptide)
peptide: Ac-[αAllylPro]D[hLeu][B5(5)]DDAAFN[PyrS2][3Thi][Bta]H-NH2
modifications: staple 1-4, 4-11
B7: I-782 (peptide)
peptide: Ac-[αAllylPro]D[tBuAla][B5(13)]DDAAFN[PyrS2][Phe(2-Me)][Bta]H-NH2
modifications: staple 1-4, 4-11
B8: I-793 (peptide)
peptide: Ac-[αAllylPro]D[tBuAla][B5(4)]DDAAFN[PyrS2][Bta][Bta]H-NH2
modifications: staple 1-4, 4-11
B9: I-806 (peptide)
peptide: Ac-[αAllylPro]D[tBuAla][B5(4)]DDAAF[Cit][PyrS2″][3Thi][Bta]H-NH2
modifications: staple 1-4, 4-11
B10: I-699 (peptide)
peptide: Ac-[αAllylPro]DI[B5(8)]D[TfeGA]AAFN[S8]F[Bta]Q-NH2
modifications: staple 1-4, 4-11
B11: I-695 (peptide)
peptide: Ac-[αAllylPro]D[tBuAla][B5(8)]DDAAFN[PyrS2″][3Thi][Bta]H-NH2
modifications: staple 1-4, 4-11
B12: I-702 (peptide)
peptide: Ac-[αAllylPro]DI[B5(8)]D[TfeGA]AAFN[S8][3Thi][Bta]H-NH2
modifications: staple 1-4, 4-11
B13: I-698 (peptide)
peptide: Ac-[αAllylPro]D[tBuAla][B5(8)]DEAAFN[PyrS2″][3Thi][Bta]H-NH2
modifications: staple 1-4, 4-11
B14: I-700 (peptide)
peptide: Ac-[αAllylPro]DI[B5(8)]D[TfeGA]AAFN[S8][3Thi][Bta]Q-NH2
modifications: staple 1-4, 4-11
B15: I-426 (peptide)
peptide: Ac-[αAllylPro]DA[B5(3)]DEAAFQ[S8][3Thi][Bta]Q-NH2
modifications: staple 1-4, 4-11; also: staple isomer composition, earlier eluting HPLC peak

For the first test, the target named is full-length beta-Catenin (Uniprot ID P35222) (Homo sapiens (Human)) (UniProt P35222). The test can be described thus: fluorescence polarization competition: peptide titrated against 10 nM full-length beta-catenin + 10 nM 5FAM-TCF4(10-53) probe. In general terms: In fluorescence polarisation assays a small probe gives low polarisation when free and higher when bound to something large.
Target sequence in this assay (P35222 2-781 limits assumed): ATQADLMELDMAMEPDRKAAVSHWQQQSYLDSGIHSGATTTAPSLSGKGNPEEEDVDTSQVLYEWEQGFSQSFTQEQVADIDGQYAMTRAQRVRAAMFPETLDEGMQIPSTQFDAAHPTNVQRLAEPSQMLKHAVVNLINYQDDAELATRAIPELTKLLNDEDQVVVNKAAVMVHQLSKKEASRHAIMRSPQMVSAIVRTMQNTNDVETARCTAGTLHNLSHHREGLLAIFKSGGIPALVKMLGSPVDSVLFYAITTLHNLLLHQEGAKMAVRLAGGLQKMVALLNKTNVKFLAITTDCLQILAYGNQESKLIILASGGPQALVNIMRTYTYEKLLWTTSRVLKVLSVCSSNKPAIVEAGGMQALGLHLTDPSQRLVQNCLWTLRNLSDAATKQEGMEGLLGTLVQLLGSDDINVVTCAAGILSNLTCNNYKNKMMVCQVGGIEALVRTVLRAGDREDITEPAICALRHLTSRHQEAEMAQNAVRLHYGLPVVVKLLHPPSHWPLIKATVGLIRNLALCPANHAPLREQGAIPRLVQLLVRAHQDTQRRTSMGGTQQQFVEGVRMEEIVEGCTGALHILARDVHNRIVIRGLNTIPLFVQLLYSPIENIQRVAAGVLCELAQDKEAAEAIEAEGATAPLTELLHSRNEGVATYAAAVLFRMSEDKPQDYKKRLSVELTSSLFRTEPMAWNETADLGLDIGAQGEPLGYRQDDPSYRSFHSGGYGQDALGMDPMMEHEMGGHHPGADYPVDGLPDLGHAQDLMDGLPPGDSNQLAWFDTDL
As to B1, the EC50 stood at 5 nM.

On to B2, for which the concentration giving a half-maximal response (EC50) was 310 nM.

With B3, the concentration for a half-maximal effect (EC50) was determined as 24 nM.

On to B4, for which the EC50 turned out to be 5 nM.

For B5, the EC50 was found to be 20 nM.

Regarding B6, the concentration for a half-maximal effect (EC50) was determined as 5 nM.

In the case of B7, the EC50 was determined as 6 nM.

As for B8, the EC50 turned out to be 14 nM.

Take B9: the EC50 was 5 nM.

For another test the target is unchanged. The test can be described thus: fluorescence polarization competition; full-length beta-catenin + 5FAM-TCF4(10-53) probe; peptide titrated.
Target sequence in this assay (P35222 2-781 limits assumed): as above
In the case of B10, the EC50 was 43 nM.

Consider B11, for which the EC50 came out at 5 nM.

With B12, the EC50 was determined as 76 nM.

Consider B13, for which the concentration giving a half-maximal response (EC50) was found to be 5 nM.

With B14, the concentration giving a half-maximal response (EC50) was found to be 49 nM.

A further test has the same target. The test can be described thus: fluorescence polarization competition; peptide titrated against 10 nM full-length beta-catenin + 10 nM 5FAM-TCF4(10-53) probe.
Target sequence in this assay (P35222 whole entry): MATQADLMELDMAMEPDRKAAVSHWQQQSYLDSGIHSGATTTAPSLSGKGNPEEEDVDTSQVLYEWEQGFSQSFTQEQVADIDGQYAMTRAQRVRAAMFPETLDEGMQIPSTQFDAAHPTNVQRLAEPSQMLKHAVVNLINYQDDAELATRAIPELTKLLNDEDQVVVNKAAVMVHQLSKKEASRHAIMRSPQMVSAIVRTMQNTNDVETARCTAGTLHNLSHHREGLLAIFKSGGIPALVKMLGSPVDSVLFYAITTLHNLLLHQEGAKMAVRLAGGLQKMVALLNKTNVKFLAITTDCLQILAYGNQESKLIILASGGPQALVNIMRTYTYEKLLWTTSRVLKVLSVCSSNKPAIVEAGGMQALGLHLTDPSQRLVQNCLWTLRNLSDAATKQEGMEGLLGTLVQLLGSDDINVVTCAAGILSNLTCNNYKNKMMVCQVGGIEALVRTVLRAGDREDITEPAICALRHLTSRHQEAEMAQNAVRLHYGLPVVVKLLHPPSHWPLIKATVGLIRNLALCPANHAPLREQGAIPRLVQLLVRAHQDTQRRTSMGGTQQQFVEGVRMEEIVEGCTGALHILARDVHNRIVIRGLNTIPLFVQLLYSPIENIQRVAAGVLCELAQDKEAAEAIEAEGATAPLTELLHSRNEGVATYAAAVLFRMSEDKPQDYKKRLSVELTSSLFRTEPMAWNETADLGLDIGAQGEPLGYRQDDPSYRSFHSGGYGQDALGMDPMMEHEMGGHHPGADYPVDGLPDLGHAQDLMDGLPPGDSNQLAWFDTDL
As for B15, the IC50 was 109 nM.

A further test shares this target. The test is described as follows: fluorescence polarization competition; 10 nM full-length beta-catenin + 10 nM 5FAM-TCF4(10-53) probe, peptide titrated.
Target sequence in this assay (P35222 2-781 limits assumed): as the sequence (P35222 2-781 limits assumed) above
On to B15, for which the EC50 was found to be 109 nM.

For another test the target is unchanged. The test can be described thus: fluorescence polarization competition; 10 nM full-length beta-catenin with 10 nM 5FAM-TCF4(10-53) probe as competitor.
Target sequence in this assay (P35222 2-781 limits assumed): as above
On to B1, for which the IC50 was found to be 5 nM.

B4 showed an IC50 of 5 nM.

The molecule B9 registered a half-maximal inhibitory concentration (IC50) of 5 nM.

A further test shares this target. The test is described as follows: fluorescence polarization competition; full-length beta-catenin; competitor displaced: 5FAM-TCF4 10-53.
Target sequence in this assay (P35222 2-781 limits assumed): as above
For B10, the IC50 came out at 43 nM.

As for B11, the IC50 amounted to 5 nM.

As for B12, the half-maximal inhibitory concentration (IC50) is 76 nM.

Molecule B13 displayed an IC50 of 5 nM.

As to B14, the 50% inhibitory concentration (IC50) is 49 nM.

For the next test the target is unchanged. The test is described as follows: fluorescence polarization competition; peptide displaces 5FAM-TCF4(10-53) from full-length beta-catenin.
Target sequence in this assay (P35222 2-781 limits assumed): as above
In turn, B2 yielded an IC50 of 310 nM.

Consider B3, for which the IC50 was 24 nM.

With B5, the half-inhibitory concentration (IC50) was determined as 20 nM.

In turn, B6 registered a 50% inhibitory concentration (IC50) of 5 nM.

The molecule B7 had a 50% inhibitory concentration (IC50) of 6 nM.

Consider B8, for which the IC50 was 14 nM.

(Values after US20240116985A1, “STAPLED PEPTIDES AND METHODS THEREOF” (priority 2020, published 2024).)
